# Legend:
# [1] = target: CXCR4 naturally expressed on Jurkat T cells (human) (UniProt P61073); test: cell-based or functional assay
# [2] = target: CD4 naturally expressed on Jurkat T cells (human) (UniProt P01730); test: cell-based or functional assay
# Sequence of CXCR4 naturally expressed on Jurkat T cells (human) (P61073 whole entry): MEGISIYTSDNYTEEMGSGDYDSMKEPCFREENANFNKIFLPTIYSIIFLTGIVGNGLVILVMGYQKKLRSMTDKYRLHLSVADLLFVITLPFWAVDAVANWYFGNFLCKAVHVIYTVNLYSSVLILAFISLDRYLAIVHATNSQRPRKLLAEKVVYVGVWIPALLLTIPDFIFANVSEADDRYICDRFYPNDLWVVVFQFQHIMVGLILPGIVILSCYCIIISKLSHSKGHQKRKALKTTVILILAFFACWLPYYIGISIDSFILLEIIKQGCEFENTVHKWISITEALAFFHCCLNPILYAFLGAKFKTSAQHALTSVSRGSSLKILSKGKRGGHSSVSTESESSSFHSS
substance,measurement,setting,value
"gp143/HXB2, a carboxyl-terminus truncated form of the Env (gp160) of HIV-1 strain HXB2, expressed on CHO or 293T cells (from UniProt P04578 31-714)",fusion ratio (460 nm / 530 nm emission) of 293T cells expressing gp143/HXB2 with Jurkat cells,[1],1.54
same,fusion ratio (460 nm / 530 nm emission) of 293T cells expressing gp143/HXB2 with Jurkat cells,[2],1.54
